# Measurements as given in patent US9777041B2, “Protein nanofibers from self-assembling pentamers” (New York University, priority 2013, dated 2017).
# Where “and” joins values, the source holds several entries; their conditions need not be identical. Equal values may be shown once.
# Key:
# Zeta potential = assay type: physicochemical; details: 10 μM protein, pH 4
# Experimental: Zeta potential: Zeta potential measurements were performed on a Zetasizer Nano Series model Nano Z590. 50 mM phosphate buffer at pH 4 was used to saturate the clear polycarbonate disposable zeta cell DTS1060C prior to injecting 750 μL protein samples at protein concentrations of 10 μM. The following settings were used for zeta potential measurements in the DTS (Nano) software: […] instrument settings, Smoluvchoski model, material protein, dispersant PBS, temperature of 25° C., viscosity 1.0200 cP, and dielectric constant of […]. Measurements were taken in triplicates, conducting 10 runs for each measurement, with a delay time of 2 seconds between each measurement.
# [1] = Confocal microscopy of protein fibers in the presence of curcumin; assay type: physicochemical
# Experimental: FIGS. 7a-7c show confocal microscopy of CC, Q54, and COMPcc^S wt, in the presence of curcumin. The mixture of protein to curcumin were all at a ratio of 1:5. […] All different proteins are in 50 mM phosphate buffer, pH 4. Protein and curcumin samples were combined and incubated for 12 hours prior to imaging. […] The width of COMPcc^S wt shown in FIG. 7c was determined to be 12.72 μm. […] Overall, Q54 fibers appeared to be more uniform in width, as well as more robust and consistent in fiber formation.
# Confocal microscopy: Samples were imaged using a Leica TCS SP2 AOBS confocal microscope system equipped with argon ion and HeNe lasers. A 63×/1.4 NA oil-immersion objective was used for all of the images. Lab-Tek II chambered #1.5 German coverglass system was used as the imaging slide. Curcumin was excited using the 458 nm line of the argon laser, and images were taken with the detection window set between 465 and 560 nm. The pinhole aperture was set at an Airy value of 1.0, which was equivalent to sampling an ˜500 nm vertical z slice of the fiber, as estimated by the axial resolution, rz,confocal≈1.4λcm n/NA^2 (NA, numerical aperture; n, refractive index; λcm, emission wavelength (525 nm)). Interference contrast images were obtained using the Leica tube optics HC 1×/B apparatus with a focusing Bertrand lens. The 3D reconstructions were constructed using ImageJ 64 1.43 in concert with Amira 5.43, employing the Volren 3D rendering routine.
# [2] = Transmission electron microscopy of protein fibers; assay type: physicochemical; details: pH 4, 50 mM PB
# Experimental: Transmission electron microscopy: A JEOL JEM-1400 transmission electron microscope (TEM) was used to study the supramolecular protein structure. […] After 1 minute, the grids were blotted using filter paper and rinsed with 3-4 drops Milli Q water to remove excess salts from the buffer. After blotting with filter paper, the sample was negatively stained by adding 3 μL of 1% filtered uranyl acetate, blotted using filter paper, and dried at room temperature for 10-15 minutes. ImageJ software was used to measure the fibers dimensions.
# [3] = Circular dichroism thermal melts at 222 nm, van't Hoff analysis; assay type: physicochemical; details: for Tm: 10 μM protein; for ΔG° (free energy of folding): at 25° C.; for ΔS°: ΔS° = ΔH°/Tm
# Experimental: (§1) Circular dichroism: Circular dichroism (CD) measurements were conducted on a Jasco J-815 CD spectrometer. Wavelength and temperature scans were conducted with 10 μM (6.3×10^−2 mg/mL) protein concentrations. The wavelength spectrum was measured over a range from 190 to 250 nm with a step size of 1 nm Mean residue ellipticity (MRE) was calculated from raw data according to the procedure described in Gunasekar et al. 2009. Secondary structure analysis of α-helical, β-sheet, and random coil content was calculated with the K2D method using DichroWeb software. Temperature scans of each protein were performed over a range of 20-85° C. with a temperature step of 1° C./min at 222 nm. Scans were also performed at of 2° C./min and 5° C./min to evaluate dependence of thermal melt signatures on scan speed. All measurements were made in duplicates of independently prepared proteins and data represents the average. Thermodynamic properties of wt and Q were determined through analysis of thermal melts. A two-state model was used, where assumptions included monophasic behavior and reversible melting behavior. These assumptions were confirmed experimentally by melting (from 20 to 85° C.) and cooling (from 85 to 20° C.) the proteins. Calculation of thermodynamic parameters including Tm, ΔG°, ΔH°, and ΔS° were performed according to the method described by Greenfield.
# Thermodynamic properties were assessed via thermal melt of the proteins at 222 nm. Prior to calculating thermodynamic constants, assumptions of monophasic behavior and melt reversibility were confirmed experimentally for wt and Q at all pHs by melting and cooling proteins (FIGS. 18a-18d). The van't Hoff equation was applied to thermal melts of the proteins in the range of 20-85° C.
# [4] = Curcumin binding fluorescence; details: in the presence of Zn^2+
# Description: FIG. 40. Fluorescence of C and Q or with incorporated trifluoroleucine/TFL (C TFL and Q TFL) in the presence of no metal, Ni (II), or Zn (II) and curcumin. An increase in fluorescence indicates structural stability of the protein as it is able to bind with curcumin, the fluorescent probe in this case.
# [5] = Circular dichroism wavelength scans (secondary structure); assay type: physicochemical; details: for −θ222 × 10^3 / −θmin × 10^3: 10 μM protein; for random coil / α helices / β sheet: CD, K2D method
# Experimental: as §1
# To assess the secondary structure of the proteins under acidic as well as neutral and basic conditions in solution, CD measurements were performed. […] The presence of residue P28 towards the center of Q may have influenced the secondary structure, showing decreased helical content when compared to wt at pH 4 and 10 (FIG. 16). The negative control, L, was completely unstructured, devoid of helical content at pH 4 (FIG. 11). […] As the pH increased, the helical content of soluble Q protein increased.
# Mean residual ellipticities from circular dichroism measurements at pH 4, 8, and 10 for wt, L, and Q. The data presented in Table 5 represents the average and standard deviation of at least two replicates.
substance,measurement,setting,value
"Q: Q54 protein, SEQ ID NO:2, variant of COMPcc; coiled-coil that self-assembles into homopentamers and nanofibers (MRGSHHHHHHGSIEGRVKEITFLKNTAPQMLRELQETNAALQDVRELLRQQSKL)",zeta potential,Zeta potential; absence of curcumin,19.1±2.5 mV
same,"zeta potential, maximum value",Zeta potential; curcumin concentration of 40 μM,25.2±0.8 mV
same,microfiber diameter,"[1]; in the presence of curcumin (10 μM Q, 50 μM curcumin), pH 4",16 μm and 16.0±5.6 μm
same,average width of protein fibers,"[1]; protein:curcumin 1:5, 20 mM protein, 100 mM curcumin, 50 mM phosphate buffer pH 4, 12 hours",16.87±9 μm
same,fiber formation seen by TEM,[2],regularly forms fibers with high levels of structure
same,protofibril diameters,[2],3.5±0.5 nm
same,fiber diameters,[2]; listed as Q54,50-100 nm
same,protofibril diameters,[2]; listed as Q54,3-4 nm
same,melting temperatures (Tm),"[3]; across all pH values (4, 8, 10)",46.4-63.5 °C
same,increase in Tm compared to the parent wt,[3]; pH 4,7.2 °C
same,ΔH° (van't Hoff enthalpy),[3]; pH 4,-32.3 kcal/mol
same,Tm,[3]; pH 4,55.3 °C
same,ΔG° (free energy of folding),[3]; pH 4,-3.3 kcal/mol
same,ΔS°,[3]; pH 4,-97.1 cal/(mol·K)
same,increase in Tm compared to the parent wt,[3]; pH 8,14.7 °C
same,ΔH° (van't Hoff enthalpy),[3]; pH 8,-32.6 kcal/mol
same,Tm,[3]; pH 8,63.5 °C
same,ΔG° (free energy of folding),[3]; pH 8,-3.8 kcal/mol
same,ΔS°,[3]; pH 8,-96.8 cal/(mol·K)
same,ΔH° (van't Hoff enthalpy),[3]; pH 10,-46.4 kcal/mol
same,Tm,[3]; pH 10,46.4 °C
same,ΔG° (free energy of folding),[3]; pH 10,-3.1 kcal/mol
same,ΔS°,[3]; pH 10,-145 cal/(mol·K)
same,binding to small molecule (curcumin fluorescence),[4],substantially increase the binding to small molecule
same,"double minimum, ellipticity at 206 nm","[5]; 206 nm, pH 4 (Table 5)",−6.54×10^3 deg cm^2 dmol^−1
same,"double minimum, ellipticity at 222 nm","[5]; 222 nm, pH 4 (Table 5)",−3.71×10^3 deg cm^2 dmol^−1
same,−θ222 × 10^3,[5]; pH 4,3.71 10^3 deg cm^2 dmol^-1
same,−θmin × 10^3,[5]; pH 4,6.54 10^3 deg cm^2 dmol^-1
same,random coil,[5]; pH 4,55%
same,α helices,[5]; pH 4,9%
same,β sheet,[5]; pH 4,36%
same,−θ222 × 10^3,[5]; pH 8,6.63 10^3 deg cm^2 dmol^-1
same,−θmin × 10^3,[5]; pH 8,7.79 10^3 deg cm^2 dmol^-1
same,random coil,[5]; pH 8,57%
same,α helices,[5]; pH 8,22%
same,β sheet,[5]; pH 8,21%
same,−θ222 × 10^3,[5]; pH 10,6.76 10^3 deg cm^2 dmol^-1
same,−θmin × 10^3,[5]; pH 10,8.07 10^3 deg cm^2 dmol^-1
same,random coil,[5]; pH 10,57%
same,α helices,[5]; pH 10,25%
same,β sheet,[5]; pH 10,18%
